Assay results from US20230355813A1, “Theranostic Silicon-Fluoride Heteroaromatic Systems and Methods Thereof” (Fuzionaire Diagnostics, Inc., priority 2022, published 2023).

Experiments:
[1] = ex vivo biodistribution in healthy mice; conditions: for bone uptake: ex vivo biodistribution, 3 healthy Balb/c female mice, indicates Si-18F bond stability in vivo
[2] = pH 10
Description: Brief descriptions of each property and the characterization of each property are stated below. • a) Hydrophilicity. Hydrophilicity relates to the strength of being dissolved in or absorbed in aqueous solutions. It denotes a preference for liquids, solutions, or surfaces with a high dipole moment, like water. Lipophilicity denotes a preference for liquids, solutions, or surfaces with a low dipole moment, such as lipid solutions. The more polar the HetSiFA, the less masking of the lipophilicity may be needed in the radiopharmaceutical via introducing cumbersome and lengthy linkers. The hydrophilicity of HetSiFAs is assessed by calculating and/or measuring the octanol/water partition coefficient log P. Log D measures the lipophilicity of ionizable compounds, where the partition is a function of the pH. The reversed-phase HPLC retention times tR can be used to qualitatively compare the polarity of HetSiFAs. • b) Hydrolytic stability. […] At different time points, the substrate is quantified by HPLC UV monitoring. […] The hydrolysis is monitored by HPLC (˜7 timepoints). […] In addition, the stability of compounds can be assessed in rat and human plasma and in microsomes. • c) Radiolabeling. […] The radiolabeling properties of synthesized HetSiFAs can be assessed using low amounts of radioactivity. […]

[3] = stability in solution / on storage (observations); format: physicochemical; conditions: prolonged storage
FIG. 26 = assay: FIG. 26
Description: Table printed on a drawing sheet, FIG. 26
The patent's description of the figure: FIG. 26 illustrates HSA binding assay results of HetSiFA compounds in accordance with an embodiment of the invention.
FIG. 26 illustrates human serum albumin (HSA) binding assay results of HetSiFA compounds in accordance with an embodiment. A standard curve can be first established using reference compounds (See, e.g., Valko, K. et al., J. Pharm. Sci. 2003, 92 (11), 2236-2248; Wurzer, A. J. et al., PSMA binding dual mode radiotracer and therapeutic. 2020, WO2020157177A1; the disclosures of which are herein incorporated by reference.) The HSA binding assay results include four HetSiFA theranostic compounds, FTX-164, FTX-165, FTX-168, and FTX-181 (structures shown in FIG. 26), and two therapeutics Lutathera and Lu-NeoB. […] Test condition of the HSA binding assay includes: Column: Chiralpak HSA (100×2.1 mm, 5 μm, Cat. No. HSA5LM-C0004), flow rate: 0.3 mL/min. Mobile phase: A—NH40Ac buffer (50 mM, pH=7), freshly prepared each day; B—isopropanol (HPLC grade); 0-3 min: isocratic 100% A, 0% B; 3-40 min: gradient to 80% A, 20% B; 40-60 min: isocratic 80% A, 20% B. Samples: 9 reference compounds, concentration 0.5 mg/mL in i-PrOH/NH4OAc (50 mM) pH=7, 50:50. […]
First reader's note: HSA % is human serum albumin binding; the structures of the compounds are drawn beside the table on the same sheet.

Row | Compound | bone uptake [1] | hydrolytic stability compared to phenyl-SiFA [2] | also measured
1 | ^18F-Pyrazole-HetSiFA-Lu-DOTAGA-TATE [^18F-FTX-165] | Little bone uptake | – | –
2 | COc1ccncc1[Si](F)(C(C)(C)C)C(C)(C)C [3-(Di-tert-butylfluorosilyl)-4-methoxypyridine] | – | slightly lower hydrolytic stability than phenyl-SiFA | –
3 | CC(C)(C)OC(=O)NCCOCCn1nc(NCC(=O)O)cc1[Si](F)(C(C)(C)C)C(C)(C)C [PPI-24068, (1-(2-(2-((tert-butoxycarbonyl)amino)ethoxy)ethyl)-5-(di-tert-butylfluorosilyl)-1H-pyrazol-3-yl)glycine] | – | – | stability on storage and in basic medium [3]: some instability
4 | ^18F-Pyridine-HetSiFA-Lu-DOTAGA-TATE [FTX-164] | – | – | HSA % (FIG. 26): 97.78%
5 | COc1ncccc1[Si](F)(C(C)(C)C)C(C)(C)C [5-(Di-tert-butylfluorosilyl)-6-methoxypyridine] | – | higher hydrolytic stability than phenyl-SiFA | –
6 | Lu-DOTAGA-^18F-Pyrazole-HetSiFA-PEG12-TATE [^18F-FTX-181] | less bone uptake | – | accumulation in the liver ([1]; healthy Balb/c female mice): low; washout from non-targeted organs ([1]; healthy Balb/c female mice): washes out from non-targeted organs except for the gallbladder
